The values below come from PMC9253567, “The Role of ZAP and TRIM25 RNA Binding in Restricting Viral Translation” (Frontiers in Cellular and Infection Microbiology, 2022).

B1: FLAG-tagged ZAPL C96A/Y98A (natural protein, human, UniProt Q7Z2W4-1 1-902, looked up)
chain: MADPEVCCFITKILCAHGGRMALDALLQEIALSEPQLCEVLQVAGPDRFVVLETGGEAGITRSVVATTRARVCRRKYCQRPCDNLHLCKLNLLGRANASQSERNLCKYSHEVLSEENFKVLKNHELSGLNKEELAVLLLQSDPFFMPEICKSYKGEGRQQICNQQPPCSRLHICDHFTRGNCRFPNCLRSHNLMDRKVLAIMREHGLNPDVVQNIQDICNSKHMQKNPPGPRAPSSHRRNMAYRARSKSRDRFFQGSQEFLASASASAERSCTPSPDQISHRASLEDAPVDDLTRKFTYLGSQDRARPPSGSSKATDLGGTSQAGTSQRFLENGSQEDLLHGNPGSTYLASNSTSAPNWKSLTSWTNDQGARRKTVFSPTLPAARSSLGSLQTPEAVTTRKGTGLLSSDYRIINGKSGTQDIQPGPLFNNNADGVATDITSTRSLNYKSTSSGHREISSPRIQDAGPASRDVQATGRIADDADPRVALVNDSLSDVTSTTSSRVDDHDSEEICLDHLCKGCPLNGSCSKVHFHLPYRWQMLIGKTWTDFEHMETIEKGYCNPGIHLCSVGSYTINFRVMSCDSFPIRRLSTPSSVTKPANSVFTTKWIWYWKNESGTWIQYGEEKDKRKNSNVDSSYLESLYQSCPRGVVPFQAGSRNYELSFQGMIQTNIASKTQKDVIRRPTFVPQWYVQQMKRGPDHQPAKTSSVSLTATFRPQEDFCFLSSKKYKLSEIHHLHPEYVRVSEHFKASMKNFKIEKIKKIENSELLDKFTWKKSQMKEEGKLLFYATSRAYVESICSNNFDSFLHETHENKYGKGIYFAKDAIYSHKNCPYDAKNVVMFVAQVLVGKFTEGNITYTSPPPQFDSCVDTRSNPSVFVIFQKDQVYPQYVIEYTEDKACVIS
notes: zinc finger antiviral protein (ZAP), long isoform ZAPL, cloned from pTRIP-TagRFP-hZAPL; also called ZAPL CY; CY; source: ZAP KO 293T cells, transfected (pcDNA3.1-3XFLAG), in lysate; not shown: 3XFLAG, N-terminal, kept
B2: FLAG-tagged ZAPS C88R (ZnF 2 mutant) (natural protein, human, UniProt Q7Z2W4-2 1-699, looked up)
chain: MADPEVCCFITKILCAHGGRMALDALLQEIALSEPQLCEVLQVAGPDRFVVLETGGEAGITRSVVATTRARVCRRKYCQRPCDNLHLRKLNLLGRCNYSQSERNLCKYSHEVLSEENFKVLKNHELSGLNKEELAVLLLQSDPFFMPEICKSYKGEGRQQICNQQPPCSRLHICDHFTRGNCRFPNCLRSHNLMDRKVLAIMREHGLNPDVVQNIQDICNSKHMQKNPPGPRAPSSHRRNMAYRARSKSRDRFFQGSQEFLASASASAERSCTPSPDQISHRASLEDAPVDDLTRKFTYLGSQDRARPPSGSSKATDLGGTSQAGTSQRFLENGSQEDLLHGNPGSTYLASNSTSAPNWKSLTSWTNDQGARRKTVFSPTLPAARSSLGSLQTPEAVTTRKGTGLLSSDYRIINGKSGTQDIQPGPLFNNNADGVATDITSTRSLNYKSTSSGHREISSPRIQDAGPASRDVQATGRIADDADPRVALVNDSLSDVTSTTSSRVDDHDSEEICLDHLCKGCPLNGSCSKVHFHLPYRWQMLIGKTWTDFEHMETIEKGYCNPGIHLCSVGSYTINFRVMSCDSFPIRRLSTPSSVTKPANSVFTTKWIWYWKNESGTWIQYGEEKDKRKNSNVDSSYLESLYQSCPRGVVPFQAGSRNYELSFQGMIQTNIASKTQKDVIRRPTFVPQWYVQQMKRGPE
notes: zinc finger antiviral protein (ZAP), short isoform ZAPS, cloned from pTRIP-TagRFP-hZAPS; source: ZAP KO 293T cells, transfected (pcDNA3.1-3XFLAG), in lysate; not shown: 3XFLAG, N-terminal, kept
B3: FLAG-tagged ZAPS H176A/F184A/R189A (natural protein, human, UniProt Q7Z2W4-2 1-699, looked up)
chain: MADPEVCCFITKILCAHGGRMALDALLQEIALSEPQLCEVLQVAGPDRFVVLETGGEAGITRSVVATTRARVCRRKYCQRPCDNLHLCKLNLLGRCNYSQSERNLCKYSHEVLSEENFKVLKNHELSGLNKEELAVLLLQSDPFFMPEICKSYKGEGRQQICNQQPPCSRLHICDAFTRGNCRAPNCLASHNLMDRKVLAIMREHGLNPDVVQNIQDICNSKHMQKNPPGPRAPSSHRRNMAYRARSKSRDRFFQGSQEFLASASASAERSCTPSPDQISHRASLEDAPVDDLTRKFTYLGSQDRARPPSGSSKATDLGGTSQAGTSQRFLENGSQEDLLHGNPGSTYLASNSTSAPNWKSLTSWTNDQGARRKTVFSPTLPAARSSLGSLQTPEAVTTRKGTGLLSSDYRIINGKSGTQDIQPGPLFNNNADGVATDITSTRSLNYKSTSSGHREISSPRIQDAGPASRDVQATGRIADDADPRVALVNDSLSDVTSTTSSRVDDHDSEEICLDHLCKGCPLNGSCSKVHFHLPYRWQMLIGKTWTDFEHMETIEKGYCNPGIHLCSVGSYTINFRVMSCDSFPIRRLSTPSSVTKPANSVFTTKWIWYWKNESGTWIQYGEEKDKRKNSNVDSSYLESLYQSCPRGVVPFQAGSRNYELSFQGMIQTNIASKTQKDVIRRPTFVPQWYVQQMKRGPE
notes: zinc finger antiviral protein (ZAP), short isoform ZAPS, cloned from pTRIP-TagRFP-hZAPS; also called ZAPS HFR; HFR; source: ZAP KO 293T cells, transfected (pcDNA3.1-3XFLAG), in lysate; not shown: 3XFLAG, N-terminal, kept
B4: FLAG-tagged ZAPS C96A/Y98A (natural protein, human, UniProt Q7Z2W4-2 1-699, looked up)
chain: MADPEVCCFITKILCAHGGRMALDALLQEIALSEPQLCEVLQVAGPDRFVVLETGGEAGITRSVVATTRARVCRRKYCQRPCDNLHLCKLNLLGRANASQSERNLCKYSHEVLSEENFKVLKNHELSGLNKEELAVLLLQSDPFFMPEICKSYKGEGRQQICNQQPPCSRLHICDHFTRGNCRFPNCLRSHNLMDRKVLAIMREHGLNPDVVQNIQDICNSKHMQKNPPGPRAPSSHRRNMAYRARSKSRDRFFQGSQEFLASASASAERSCTPSPDQISHRASLEDAPVDDLTRKFTYLGSQDRARPPSGSSKATDLGGTSQAGTSQRFLENGSQEDLLHGNPGSTYLASNSTSAPNWKSLTSWTNDQGARRKTVFSPTLPAARSSLGSLQTPEAVTTRKGTGLLSSDYRIINGKSGTQDIQPGPLFNNNADGVATDITSTRSLNYKSTSSGHREISSPRIQDAGPASRDVQATGRIADDADPRVALVNDSLSDVTSTTSSRVDDHDSEEICLDHLCKGCPLNGSCSKVHFHLPYRWQMLIGKTWTDFEHMETIEKGYCNPGIHLCSVGSYTINFRVMSCDSFPIRRLSTPSSVTKPANSVFTTKWIWYWKNESGTWIQYGEEKDKRKNSNVDSSYLESLYQSCPRGVVPFQAGSRNYELSFQGMIQTNIASKTQKDVIRRPTFVPQWYVQQMKRGPE
notes: zinc finger antiviral protein (ZAP), short isoform ZAPS, cloned from pTRIP-TagRFP-hZAPS; also called ZAPS CY; CY; source: ZAP KO 293T cells, transfected (pcDNA3.1-3XFLAG), in lysate; not shown: 3XFLAG, N-terminal, kept
B5: FLAG-tagged ZAPS V72A/Y108A/F144A (natural protein, human, UniProt Q7Z2W4-2 1-699, looked up)
chain: MADPEVCCFITKILCAHGGRMALDALLQEIALSEPQLCEVLQVAGPDRFVVLETGGEAGITRSVVATTRARACRRKYCQRPCDNLHLCKLNLLGRCNYSQSERNLCKASHEVLSEENFKVLKNHELSGLNKEELAVLLLQSDPAFMPEICKSYKGEGRQQICNQQPPCSRLHICDHFTRGNCRFPNCLRSHNLMDRKVLAIMREHGLNPDVVQNIQDICNSKHMQKNPPGPRAPSSHRRNMAYRARSKSRDRFFQGSQEFLASASASAERSCTPSPDQISHRASLEDAPVDDLTRKFTYLGSQDRARPPSGSSKATDLGGTSQAGTSQRFLENGSQEDLLHGNPGSTYLASNSTSAPNWKSLTSWTNDQGARRKTVFSPTLPAARSSLGSLQTPEAVTTRKGTGLLSSDYRIINGKSGTQDIQPGPLFNNNADGVATDITSTRSLNYKSTSSGHREISSPRIQDAGPASRDVQATGRIADDADPRVALVNDSLSDVTSTTSSRVDDHDSEEICLDHLCKGCPLNGSCSKVHFHLPYRWQMLIGKTWTDFEHMETIEKGYCNPGIHLCSVGSYTINFRVMSCDSFPIRRLSTPSSVTKPANSVFTTKWIWYWKNESGTWIQYGEEKDKRKNSNVDSSYLESLYQSCPRGVVPFQAGSRNYELSFQGMIQTNIASKTQKDVIRRPTFVPQWYVQQMKRGPE
notes: zinc finger antiviral protein (ZAP), short isoform ZAPS, cloned from pTRIP-TagRFP-hZAPS; also called ZAPS VYF; VYF; source: ZAP KO 293T cells, transfected (pcDNA3.1-3XFLAG), in lysate; not shown: 3XFLAG, N-terminal, kept
B6: FLAG-tagged ZAPS K107A/Y108A (natural protein, human, UniProt Q7Z2W4-2 1-699, looked up)
chain: MADPEVCCFITKILCAHGGRMALDALLQEIALSEPQLCEVLQVAGPDRFVVLETGGEAGITRSVVATTRARVCRRKYCQRPCDNLHLCKLNLLGRCNYSQSERNLCAASHEVLSEENFKVLKNHELSGLNKEELAVLLLQSDPFFMPEICKSYKGEGRQQICNQQPPCSRLHICDHFTRGNCRFPNCLRSHNLMDRKVLAIMREHGLNPDVVQNIQDICNSKHMQKNPPGPRAPSSHRRNMAYRARSKSRDRFFQGSQEFLASASASAERSCTPSPDQISHRASLEDAPVDDLTRKFTYLGSQDRARPPSGSSKATDLGGTSQAGTSQRFLENGSQEDLLHGNPGSTYLASNSTSAPNWKSLTSWTNDQGARRKTVFSPTLPAARSSLGSLQTPEAVTTRKGTGLLSSDYRIINGKSGTQDIQPGPLFNNNADGVATDITSTRSLNYKSTSSGHREISSPRIQDAGPASRDVQATGRIADDADPRVALVNDSLSDVTSTTSSRVDDHDSEEICLDHLCKGCPLNGSCSKVHFHLPYRWQMLIGKTWTDFEHMETIEKGYCNPGIHLCSVGSYTINFRVMSCDSFPIRRLSTPSSVTKPANSVFTTKWIWYWKNESGTWIQYGEEKDKRKNSNVDSSYLESLYQSCPRGVVPFQAGSRNYELSFQGMIQTNIASKTQKDVIRRPTFVPQWYVQQMKRGPE
notes: zinc finger antiviral protein (ZAP), short isoform ZAPS, cloned from pTRIP-TagRFP-hZAPS; also called ZAPS KY; KY; source: ZAP KO 293T cells, transfected (pcDNA3.1-3XFLAG), in lysate; not shown: 3XFLAG, N-terminal, kept
B7: FLAG-tagged ZAPS E148A/K151A/R170A (natural protein, human, UniProt Q7Z2W4-2 1-699, looked up)
chain: MADPEVCCFITKILCAHGGRMALDALLQEIALSEPQLCEVLQVAGPDRFVVLETGGEAGITRSVVATTRARVCRRKYCQRPCDNLHLCKLNLLGRCNYSQSERNLCKYSHEVLSEENFKVLKNHELSGLNKEELAVLLLQSDPFFMPAICASYKGEGRQQICNQQPPCSALHICDHFTRGNCRFPNCLRSHNLMDRKVLAIMREHGLNPDVVQNIQDICNSKHMQKNPPGPRAPSSHRRNMAYRARSKSRDRFFQGSQEFLASASASAERSCTPSPDQISHRASLEDAPVDDLTRKFTYLGSQDRARPPSGSSKATDLGGTSQAGTSQRFLENGSQEDLLHGNPGSTYLASNSTSAPNWKSLTSWTNDQGARRKTVFSPTLPAARSSLGSLQTPEAVTTRKGTGLLSSDYRIINGKSGTQDIQPGPLFNNNADGVATDITSTRSLNYKSTSSGHREISSPRIQDAGPASRDVQATGRIADDADPRVALVNDSLSDVTSTTSSRVDDHDSEEICLDHLCKGCPLNGSCSKVHFHLPYRWQMLIGKTWTDFEHMETIEKGYCNPGIHLCSVGSYTINFRVMSCDSFPIRRLSTPSSVTKPANSVFTTKWIWYWKNESGTWIQYGEEKDKRKNSNVDSSYLESLYQSCPRGVVPFQAGSRNYELSFQGMIQTNIASKTQKDVIRRPTFVPQWYVQQMKRGPE
notes: zinc finger antiviral protein (ZAP), short isoform ZAPS, cloned from pTRIP-TagRFP-hZAPS; also called ZAPS EKR; EKR; source: ZAP KO 293T cells, transfected (pcDNA3.1-3XFLAG), in lysate; not shown: 3XFLAG, N-terminal, kept

The target of the experiment is T1, myc-tagged TRIM25 WT (tripartite motif-containing protein 25) (UniProt Q14258 1-630).
T1 construct: tripartite motif-containing protein 25 (TRIM25), ubiquitin E3 ligase; full-length TRIM25 provided by J. U. Jung (Gack et al., 2007); source: ZAP KO 293T or TRIM25 KO 293T cells, transfected (pcDNA3.1-myc), in lysate; not shown: myc, N-terminal, kept
T1 sequence (Q14258 whole entry): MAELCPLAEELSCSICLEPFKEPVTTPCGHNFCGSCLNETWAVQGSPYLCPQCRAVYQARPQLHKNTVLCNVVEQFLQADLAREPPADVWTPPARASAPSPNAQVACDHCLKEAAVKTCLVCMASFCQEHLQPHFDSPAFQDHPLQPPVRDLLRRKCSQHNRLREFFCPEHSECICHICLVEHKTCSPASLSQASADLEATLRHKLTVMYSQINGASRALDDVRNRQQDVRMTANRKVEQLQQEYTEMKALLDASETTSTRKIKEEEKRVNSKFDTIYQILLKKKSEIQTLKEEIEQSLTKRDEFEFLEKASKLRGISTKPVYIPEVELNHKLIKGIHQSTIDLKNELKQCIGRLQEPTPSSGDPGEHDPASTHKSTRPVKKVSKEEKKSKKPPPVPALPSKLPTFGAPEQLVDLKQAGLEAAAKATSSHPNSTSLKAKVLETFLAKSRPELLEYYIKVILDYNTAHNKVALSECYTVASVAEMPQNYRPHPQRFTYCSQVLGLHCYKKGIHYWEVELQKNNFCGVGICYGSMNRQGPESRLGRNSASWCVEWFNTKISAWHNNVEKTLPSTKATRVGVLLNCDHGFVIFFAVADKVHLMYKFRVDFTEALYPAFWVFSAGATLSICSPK
Kind of experiment: co-IP; myc IP (anti-myc beads) of myc-TRIM25 WT from lysates of ZAP KO 293T cells co-transfected with FLAG-ZAPS or FLAG-ZAPL WT or mutants; FLAG-ZAP detected by immunoblot; FLAG IP buffer (100 mM Tris-HCl 8.0, 150 mM NaCl, 5 mM EDTA, 1 mM DTT, 5% glycerol, 0.1% NP-40), 4°C, 45 min; FLAG IP band divided by myc IP band (ImageJ). The note with it: partners not purified.
Consider B1, for which the “ZAP-TRIM25 interaction (co-IP, FLAG-ZAP band over myc-TRIM25 band, ImageJ)” value came out at 0.329.

For the molecule B2, the “ZAP-TRIM25 interaction (co-IP, FLAG-ZAP band over myc-TRIM25 band, ImageJ)” value is 0.45.

Turning to B3, the “ZAP-TRIM25 interaction (co-IP, FLAG-ZAP band over myc-TRIM25 band, ImageJ)” value amounted to 0.205.

Regarding B4, the “ZAP-TRIM25 interaction (co-IP, FLAG-ZAP band over myc-TRIM25 band, ImageJ)” value was 0.55.

For the molecule B5, the “ZAP-TRIM25 interaction (co-IP, FLAG-ZAP band over myc-TRIM25 band, ImageJ)” value worked out at 0.792.

Regarding B6, the “ZAP-TRIM25 interaction (co-IP, FLAG-ZAP band over myc-TRIM25 band, ImageJ)” value is 0.33.

Turning to B7, the “ZAP-TRIM25 interaction (co-IP, FLAG-ZAP band over myc-TRIM25 band, ImageJ)” value was determined as 0.189.
